The supplement of paper PMC9112550, “Optimization of the antimicrobial peptide Bac7 by deep mutational scanning” (BMC Biology, 2022)

Tested on: Escherichia coli TOP10
Test: shrunken log2 fold change of peptide-encoding DNA abundance (4.5 h post-induction vs induction); higher = less antimicrobial activity (less host growth inhibition)
Settings: time post-induction: 4.5 h; library: site-saturation at positions 5, 18, 19, 20
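Further: peptides expressed intracellularly from a pBAD plasmid library in pooled LB shake-flask culture, induced with 0.3% L-arabinose, DNA abundance read by NGS, three biological replicates, DESeq2 with apeglm shrinkage.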

Sequence | shrunken log2 fold change
RRIRLRPPRLPRPRPRPHGHPRP | -0.126
RRIRLRPPRLPRPRPRPHIIPRP | 0.0077
RRIRLRPPRLPRPRPRPHLQPRP | -0.0975
RRIRLRPPRLPRPRPRPHLSPRP | -0.0728
RRIRLRPPRLPRPRPRPHNFPRP | -0.115
RRIRLRPPRLPRPRPRPHNIPRP | -0.049
RRIRLRPPRLPRPRPRPHQTPRP | 0.001
RRIRLRPPRLPRPRPRPHRSPRP | 0.0989
RRIRLRPPRLPRPRPRPHSGPRP | -0.0238
RRIRLRPPRLPRPRPRPHTGPRP | -0.158
RRIRLRPPRLPRPRPRPHWPPRP | 0.00985
RRIRLRPPRLPRPRPRPHWRPRP | 0.147
RRIRLRPPRLPRPRPRPHYGPRP | -0.232
RRIRLRPPRLPRPRPRPHYMPRP | -0.969
RRIRLRPPRLPRPRPRPIACPRP | 0.0367
RRIRLRPPRLPRPRPRPIATPRP | 0.173
RRIRLRPPRLPRPRPRPICPPRP | 0.00212
RRIRLRPPRLPRPRPRPICWPRP | -0.0336
RRIRLRPPRLPRPRPRPIDGPRP | -0.0968
RRIRLRPPRLPRPRPRPIDHPRP | -0.154
RRIRLRPPRLPRPRPRPIDMPRP | -0.184
RRIRLRPPRLPRPRPRPIERPRP | -0.155
RRIRLRPPRLPRPRPRPIFCPRP | -0.314
RRIRLRPPRLPRPRPRPIFDPRP | -0.0489
RRIRLRPPRLPRPRPRPIFPPRP | 0.0478

Sequence | shrunken log2 fold change
RRIRLRPPRLPRPRPRPIGGPRP | 0.0938
RRIRLRPPRLPRPRPRPIGMPRP | 0.0212
RRIRLRPPRLPRPRPRPIHQPRP | 0.0518
RRIRLRPPRLPRPRPRPIKIPRP | 0.0507
RRIRLRPPRLPRPRPRPIKTPRP | -0.0953
RRIRLRPPRLPRPRPRPILYPRP | -0.314
RRIRLRPPRLPRPRPRPIMIPRP | -0.286
RRIRLRPPRLPRPRPRPIPSPRP | -0.177
RRIRLRPPRLPRPRPRPIPYPRP | -0.401
RRIRLRPPRLPRPRPRPIQGPRP | -0.226
RRIRLRPPRLPRPRPRPIQLPRP | -0.235
RRIRLRPPRLPRPRPRPIRLPRP | -0.3
RRIRLRPPRLPRPRPRPITDPRP | -0.465
RRIRLRPPRLPRPRPRPIVGPRP | 0.0604
RRIRLRPPRLPRPRPRPIVKPRP | -0.0195
RRIRLRPPRLPRPRPRPIWAPRP | 0.136
RRIRLRPPRLPRPRPRPIWRPRP | 0.102
RRIRLRPPRLPRPRPRPIWSPRP | -0.256
RRIRLRPPRLPRPRPRPIWVPRP | -0.0362
RRIRLRPPRLPRPRPRPIYKPRP | -0.489
RRIRLRPPRLPRPRPRPIYMPRP | -0.199
RRIRLRPPRLPRPRPRPKCNPRP | -0.647
RRIRLRPPRLPRPRPRPKDDPRP | -0.0117
RRIRLRPPRLPRPRPRPKDGPRP | -0.0687
RRIRLRPPRLPRPRPRPKEEPRP | -0.0533

Sequence | shrunken log2 fold change
RRIRLRPPRLPRPRPRPKESPRP | 0.0595
RRIRLRPPRLPRPRPRPKFLPRP | -0.173
RRIRLRPPRLPRPRPRPKGSPRP | -0.0276
RRIRLRPPRLPRPRPRPKGVPRP | 0.0368
RRIRLRPPRLPRPRPRPKIRPRP | -0.128
RRIRLRPPRLPRPRPRPKKQPRP | -0.046
RRIRLRPPRLPRPRPRPKKTPRP | 0.0684
RRIRLRPPRLPRPRPRPKLGPRP | -0.123
RRIRLRPPRLPRPRPRPKMAPRP | 0.259
RRIRLRPPRLPRPRPRPKQWPRP | 0.176
RRIRLRPPRLPRPRPRPKRKPRP | -0.314
RRIRLRPPRLPRPRPRPKRMPRP | -0.029
RRIRLRPPRLPRPRPRPKTDPRP | -0.233
RRIRLRPPRLPRPRPRPKTEPRP | 0.14
RRIRLRPPRLPRPRPRPKTIPRP | -0.109
RRIRLRPPRLPRPRPRPKTNPRP | -0.0556
RRIRLRPPRLPRPRPRPKTSPRP | 0.0111
RRIRLRPPRLPRPRPRPKVMPRP | -0.044
RRIRLRPPRLPRPRPRPKVNPRP | 0.0232
RRIRLRPPRLPRPRPRPKWMPRP | -0.00339
RRIRLRPPRLPRPRPRPKWTPRP | 0.0422
RRIRLRPPRLPRPRPRPKYVPRP | -0.126
RRIRLRPPRLPRPRPRPLAKPRP | 0.0773
RRIRLRPPRLPRPRPRPLCDPRP | -0.284
RRIRLRPPRLPRPRPRPLDPPRP | 0.061

Sequence | shrunken log2 fold change
RRIRLRPPRLPRPRPRPLDRPRP | 0.25
RRIRLRPPRLPRPRPRPLFRPRP | -0.388
RRIRLRPPRLPRPRPRPLFWPRP | 0.12
RRIRLRPPRLPRPRPRPLGDPRP | 0.015
RRIRLRPPRLPRPRPRPLGGPRP | 0.157
RRIRLRPPRLPRPRPRPLGRPRP | 0.0726
RRIRLRPPRLPRPRPRPLHEPRP | -0.00702
RRIRLRPPRLPRPRPRPLHWPRP | 1.5
RRIRLRPPRLPRPRPRPLIIPRP | -0.631
RRIRLRPPRLPRPRPRPLKFPRP | -0.57
RRIRLRPPRLPRPRPRPLKWPRP | -0.369
RRIRLRPPRLPRPRPRPLLEPRP | -0.0263
RRIRLRPPRLPRPRPRPLMEPRP | -0.392
RRIRLRPPRLPRPRPRPLNEPRP | -0.0224
RRIRLRPPRLPRPRPRPLNHPRP | -0.355
RRIRLRPPRLPRPRPRPLQGPRP | -0.0384
RRIRLRPPRLPRPRPRPLTIPRP | -0.0053
RRIRLRPPRLPRPRPRPLYYPRP | -0.274
RRIRLRPPRLPRPRPRPMASPRP | 0.0148
RRIRLRPPRLPRPRPRPMDSPRP | -0.172
RRIRLRPPRLPRPRPRPMHCPRP | -0.00782
RRIRLRPPRLPRPRPRPMHDPRP | -0.134
RRIRLRPPRLPRPRPRPMHMPRP | -0.226
RRIRLRPPRLPRPRPRPMILPRP | -0.677
RRIRLRPPRLPRPRPRPMISPRP | 0.00361

Sequence | shrunken log2 fold change
RRIRLRPPRLPRPRPRPMLQPRP | -0.0201
RRIRLRPPRLPRPRPRPMMKPRP | -0.0811
RRIRLRPPRLPRPRPRPMMMPRP | -0.114
RRIRLRPPRLPRPRPRPMMSPRP | -0.00436
RRIRLRPPRLPRPRPRPMMVPRP | -0.145
RRIRLRPPRLPRPRPRPMMWPRP | 0.148
RRIRLRPPRLPRPRPRPMNEPRP | -0.00493
RRIRLRPPRLPRPRPRPMNHPRP | -0.409
RRIRLRPPRLPRPRPRPMNPPRP | -0.0817
RRIRLRPPRLPRPRPRPMNTPRP | -0.524
RRIRLRPPRLPRPRPRPMPFPRP | -0.0289
RRIRLRPPRLPRPRPRPMQVPRP | -0.0149
RRIRLRPPRLPRPRPRPMRGPRP | 0.839
RRIRLRPPRLPRPRPRPMTNPRP | -0.0811
RRIRLRPPRLPRPRPRPMVLPRP | -0.239
RRIRLRPPRLPRPRPRPMVNPRP | -0.0358
RRIRLRPPRLPRPRPRPMVSPRP | -0.0017
RRIRLRPPRLPRPRPRPMWWPRP | 1.19
RRIRLRPPRLPRPRPRPMYTPRP | -0.119
RRIRLRPPRLPRPRPRPNAMPRP | -0.16
RRIRLRPPRLPRPRPRPNCHPRP | -0.156
RRIRLRPPRLPRPRPRPNCIPRP | -0.603
RRIRLRPPRLPRPRPRPNCVPRP | 0.138
RRIRLRPPRLPRPRPRPNDAPRP | 0.229
RRIRLRPPRLPRPRPRPNFLPRP | -0.153

Sequence | shrunken log2 fold change
RRIRLRPPRLPRPRPRPNGMPRP | -0.0765
RRIRLRPPRLPRPRPRPNHCPRP | -0.132
RRIRLRPPRLPRPRPRPNIAPRP | -0.0706
RRIRLRPPRLPRPRPRPNKDPRP | -0.683
RRIRLRPPRLPRPRPRPNKGPRP | -0.254
RRIRLRPPRLPRPRPRPNKKPRP | -0.256
RRIRLRPPRLPRPRPRPNLDPRP | -0.18
RRIRLRPPRLPRPRPRPNLSPRP | -0.548
RRIRLRPPRLPRPRPRPNMCPRP | 0.0102
RRIRLRPPRLPRPRPRPNMNPRP | -0.68
RRIRLRPPRLPRPRPRPNMWPRP | -0.235
RRIRLRPPRLPRPRPRPNNMPRP | -0.703
RRIRLRPPRLPRPRPRPNPMPRP | 0.0102
RRIRLRPPRLPRPRPRPNSKPRP | -0.706
RRIRLRPPRLPRPRPRPNSRPRP | -0.0164
RRIRLRPPRLPRPRPRPNSYPRP | -0.3
RRIRLRPPRLPRPRPRPNTGPRP | -0.359
RRIRLRPPRLPRPRPRPNVQPRP | -0.275
RRIRLRPPRLPRPRPRPNWAPRP | -0.00149
RRIRLRPPRLPRPRPRPNWDPRP | 0.14
RRIRLRPPRLPRPRPRPNWHPRP | -0.0136
RRIRLRPPRLPRPRPRPNWKPRP | -0.225
RRIRLRPPRLPRPRPRPPACPRP | 0.448
RRIRLRPPRLPRPRPRPPARPRP | 0.789
RRIRLRPPRLPRPRPRPPAVPRP | 0.341
